Data published in PMC5890176.
One block for each substance: values may come before it.

Legend:
[1] = target: HU of Streptococcus pneumoniae (SpnHU) (Streptococcus pneumoniae R6); assay: cross-linking; 0.1% glutaraldehyde, room temperature, 30 min, 5 mM Tris-HCl pH 8.0, 25 mM KCl, 25% glycerol, 0.25 mM EDTA, 0.25 mM DTT; SDS-PAGE (15%), Coomassie; all tested concentrations
[2] = tested on: SpnHU (HU, histone-like protein) (Streptococcus pneumoniae R6); assay: EMSA (agarose); details: 2 nM DNA, 10 mM Tris-HCl pH 8.0, 50 mM KCl, 0.05% Brij 58, 0.01 mg/ml BSA, 5% glycerol, 0.01 mM EDTA, 0.01 mM DTT, room temperature 20 min, 0.5% agarose in TBE

stoichiometry N [1]: 2
Substance: HU of Streptococcus pneumoniae (SpnHU) (natural protein)

Substance: pBR322 nicked (Nt.BstNBI)
binding signal ([2]; SpnHU concentration required for shift (16-fold more than supercoiled), nicked with Nt.BstNBI): 3.2 µM

Substance: pBR322 supercoiled
binding signal ([2]; SpnHU concentration at which shift seen): 0.2 µM

Substance: pBR322 linear (PstI)
binding signal ([2]; SpnHU concentration required for shift (8-fold more than supercoiled)): 1.6 µM
